According to US20050037420A1 (published 2005):
Positions count from the first letter of the chain named.

T1: full-length NSM protein (putative movement protein of Tomato Spotted Wilt Virus) obtained from the IMPACT … (Tomato Spotted Wilt Virus, UniProt P36292 1-301)
T1 construct: mature; also called soluble NSM protein
T1 sequence (looked up): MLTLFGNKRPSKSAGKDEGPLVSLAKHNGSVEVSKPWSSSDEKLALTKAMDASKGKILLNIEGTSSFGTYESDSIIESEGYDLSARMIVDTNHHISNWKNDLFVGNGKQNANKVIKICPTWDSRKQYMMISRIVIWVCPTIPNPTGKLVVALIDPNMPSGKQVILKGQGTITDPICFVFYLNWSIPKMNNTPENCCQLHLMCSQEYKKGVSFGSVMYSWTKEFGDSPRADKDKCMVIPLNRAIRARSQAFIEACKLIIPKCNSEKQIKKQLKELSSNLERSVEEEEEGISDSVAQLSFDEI

B1: scFv N12 (scFv)
scFv: AVTLDESGGGLQTPGGGLSLVCKASGFDFSSYDMVWVRQAPGKGLEWVAGISSGSGPNYGAAVKGRATISRDNGQSTVRLQLNNLRAEDTATYYCAKNEGADWCGHYYCSVAYIDAWGHGTEVTVSSGSTSGSGKPGPGEGSTKGAPALTQPSSVSANPGETVKITCSGGSGDHYGWFQQKSPGSAPVTVIYNNDNRPSDIPSRFSGSKSGSTHTLTITGVQVEDEAVYFCGNRDSSAGIFGAGTTLTVLGQP
notes: Soluble scFv, mini-scale (pHEN4II, c-myc tag) or large-scale (pTMZ1, IMAC purified) from E. coli; also called clone N12; not shown: C-terminal c-myc and his-6 tags from the expression vector
B2: scFv N5 (scFv)
scFv: B1 scFv with G56V, N193K, D195E
notes: Soluble scFv, mini-scale (pHEN4II, c-myc tag) or large-scale (pTMZ1, IMAC purified) from E. coli; also called clone N5; not shown: C-terminal c-myc and his-6 tags from the expression vector
B3: scFv N3 (scFv)
scFv: AVTLDESGGGLQTPGGGLSLVCKASGFSFSSYSMGWVRQAPGKGLEWVAGIGSSVIRTYYAPAVKGRATIPRDNGQSTVRLQLNDLRAEDTGTYYCAKESGSGKWFSIGQIDAWGHGTEVTVSSGSTSGSGKPGPGEGSTKGAPALTQPSSVSANPGGTVQITCSGGSGSYGWFQQKSPGSAPVTVIYSSDKRPSDIPSRFSGSKSGSTGTLTITGVQADDEAVYFCGSADSSHLGIFGAGTTLTVLGQP
notes: Soluble scFv, mini-scale (pHEN4II, c-myc tag) or large-scale (pTMZ1, IMAC purified) from E. coli; also called clone N3; not shown: C-terminal c-myc and his-6 tags from the expression vector
B4: scFv N10 (scFv)
scFv: B3 scFv with S170N
notes: Soluble scFv, mini-scale (pHEN4II, c-myc tag) or large-scale (pTMZ1, IMAC purified) from E. coli; also called clone N10; not shown: C-terminal c-myc and his-6 tags from the expression vector

Molecular target: T1, full-length NSM protein (putative …)
Test: ELISA, full-length NSM coated, mini-scale expressed soluble scFv; vector control OD 0.02
Source text: NSM-specific clones were identified by ELISA using mini-scale expressed soluble scFvs and full-length NSM protein for coating.

Row | Binder | OD410 nm [OD]
1 | B1 | 0.2
2 | B2 | 0.2
3 | B3 | 0.2
4 | B4 | 0.2
